The target in assay [1] is HypT RD M206Q mutant protein (Salmonella enterica serovar Typhimurium). The experiment in a line: crystal structure.
Assay [2] concerns the target full-length StHypT protein (HypT of Salmonella enterica serovar Typhimurium, WP_000383509) (Salmonella enterica serovar Typhimurium). The experiment in a line: SEC. In general terms: Size exclusion chromatography separates by hydrodynamic size, large species first.
For assay [3] the target is unchanged. The experiment in a line: crystal structure.

For two substances, stoichiometry N results are on record in PMC6397515.

One may read the stoichiometry N as the number of molecules, sites or subunits per partner or assembly. “HypT RD M206Q mutant protein (domain or fragment)” returned a stoichiometry N in assay [1] of 2. Regarding “full-length StHypT protein (HypT of Salmonella enterica serovar Typhimurium, WP_000383509) (natural protein)”, the stoichiometry N in assay [2] and in assay [3] was 4 in each case.
